Reference: paper PMC12309606

Legend:
[1] = molecular target: Biotinylated C-terminal cysteine-tagged MR1–5-OP-RU (SPR) (human) (UniProt Q95460); test: SPR
[2] = molecular target: MR1 on untreated C1R.MR1 cells (UniProt Q95460); test: flow cytometry, TCR tetramer staining on C1R.MR1 cells; conditions: No Ligand
[3] = molecular target: MR1 on C1R.MR1 cells pulsed with 5-OP-RU (UniProt Q95460); test: as above; conditions: 5-OP-RU (10 µM), pulsed for 5 h
[4] = molecular target: MR1 on C1R.MR1 cells pulsed with Ac-6-FP (UniProt Q95460); test: as above; conditions: Ac-6-FP (10 µM), pulsed for 5 h
M33-64 TCR tetramer = test: flow cytometry, TCR tetramer staining on C1R.MR1 mutant cells; conditions: 1 μM 5-OP-RU for 3 h; stained 30 min at room temperature; parent: est. 6400; read off a plot
[5] = molecular target: MAV36 TCR Ser49β alanine mutant on HEK293T cells (human); test: flow cytometry on cells; PE-labeled MR1–5-OP-RU tetramer (0.5 μg/ml, nonsaturating) staining of HEK293T cells transiently expressing MAV36 TCR or alanine mutants with CD3, 15 min at room temperature; gates normalised for TCR level by anti-Vβ3
[6] = molecular target: MAV36 TCR Gln99β alanine mutant on HEK293T cells (human); test: as above

| response (M33-64 TCR tetramer) [MFI] | Substance | further results |
| --- | --- | --- |
| – | A-F7 TCR (TRAV1-2–TRBV6-1), soluble | Kd [1]: 2700 nM |
| – | M33-64 TCR tetramer Tyr95αAla | response [2]: 162 MFI; response [3]: 61300 MFI; response [4]: 166 MFI |
| – | M33-64 TCR tetramer Tyr95αPhe | response [2]: 171 MFI; response [3]: 140000 MFI; response [4]: 20900 MFI |
| 6100 | MR1 on C1R.MR1 cells pulsed with 5-OP-RU (from UniProt Q95460) D57A | – |
| 2800 | MR1 on C1R.MR1 cells pulsed with 5-OP-RU (from UniProt Q95460) E158A | – |
| 4600 | MR1 on C1R.MR1 cells pulsed with 5-OP-RU (from UniProt Q95460) H148A | – |
| 1300 | MR1 on C1R.MR1 cells pulsed with 5-OP-RU (from UniProt Q95460) L65A | – |
| 7000 | MR1 on C1R.MR1 cells pulsed with 5-OP-RU (from UniProt Q95460) L151A | – |
| 5900 | MR1 on C1R.MR1 cells pulsed with 5-OP-RU (from UniProt Q95460) M72A | – |
| 4000 | MR1 on C1R.MR1 cells pulsed with 5-OP-RU (from UniProt Q95460) N146A | – |
| 1600 | MR1 on C1R.MR1 cells pulsed with 5-OP-RU (from UniProt Q95460) N155A | – |
| 5400 | MR1 on C1R.MR1 cells pulsed with 5-OP-RU (from UniProt Q95460) Q141A | – |
| 5000 | MR1 on C1R.MR1 cells pulsed with 5-OP-RU (from UniProt Q95460) R61A | – |
| 6600 | MR1 on C1R.MR1 cells pulsed with 5-OP-RU (from UniProt Q95460) R79A | – |
| 5700 | MR1 on C1R.MR1 cells pulsed with 5-OP-RU (from UniProt Q95460) R167A | – |
| 5500 | MR1 on C1R.MR1 cells pulsed with 5-OP-RU (from UniProt Q95460) T138A | – |
| 6400 | MR1 on C1R.MR1 cells pulsed with 5-OP-RU (from UniProt Q95460) V75A | – |
| – | PE-labeled MR1–5-OP-RU tetramer (from UniProt Q95460 23-341; P61769 21-119) (complex) | reduction of tetramer staining against the wildtype TCR [5]: 50%; reduction of tetramer staining against the wildtype TCR [6]: 50% |
